Test results as given in patent US20210346432A1.

Columns and labels:
ET140-p25 (human) = target: T1, ET140-p25 (human); test: peptide ELISA on streptavidin plate, antibody 1 ug/mL
T1 sequence (peptide, N-terminal biotin): SGSGLRCSSNTPPLTCQRY

ET140-p26 (human) = target: T2, ET140-p26 (human); test: as above
T2 sequence (peptide, N-terminal biotin): SGSGRCSSNTPPLTCQRYC

A450 (ET140-p25 (human)): 0.583
A450 (ET140-p26 (human)): 0.225
B1: ET140-153 mIgG1 (antibody, V domains shown)
VH: QVQLVQSGAEVKKPGSSVKVSCKASGGTFSSYAISWVRQAPGQGLEWMGRIIPILGIANYAQKFQGRVTITADKSTSTAYMELSSLRSEDTAVYYCARGGYYSHDMWSEDWGQGTLVTVSS
VL: LPVLTQPPSASGTPGQRVTISCSGRSSNIGSNSVNWYRQLPGAAPKLLIYSNNQRPPGVPVRFSGSKSGTSASLAISGLQSEDEATYYCATWDDNLNVHYVFGTGTKVTVLG
